The results in this text go back to PMC8536467 (Molecular cell, 2021).

This test has as its target Human 53BP1-Tudor (residues 1484-1603) (human, UniProt Q12888 1484-1603). The test is described as follows: ITC.

Where no end group is shown, it is not given here. Me2 = dimethyl (dimethylated lysine)

Chain of Human 53BP1-Tudor (residues 1484-1603) (Q12888 1484-1603): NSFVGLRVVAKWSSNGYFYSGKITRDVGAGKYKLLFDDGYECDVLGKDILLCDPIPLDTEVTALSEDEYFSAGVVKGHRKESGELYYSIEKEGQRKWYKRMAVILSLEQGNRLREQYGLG

B1: p53K370me2 peptide (residues 366-375) (peptide, UniProt P04637 366-375, looked up)
peptide: SSHLK(Me2)SKKGQ
In turn, B1 had a Kd of 52 µM.

B2: p53K382me2 peptide (residues 377-386) (peptide, UniProt P04637 377-386, looked up)
peptide: TSRHKK(Me2)LMFK
Molecule B2 came in with a dissociation constant Kd of 8 µM.

As a reminder, the Kd is the constant that tells how readily two partners part at equilibrium. High values mean lower affinity, low ones higher affinity.
